Source: PMC5719032, “Differentially evolved glucosyltransferases determine natural variation of rice flavone accumulation and UV-tolerance” (Nature Communications, 2017)

B1: OsUGT706D1 (Oryza sativa Japonica Group) (protein)
chain: MESKPSRNVVLYAAMGAGHLLPMVELAKLFLTRGLDVTIAVPATPGSGTTGSPTIAGIAASNPSITFHHLPPPPSCADPDPNPLLLMLDVLRRSVPSLASLLRSIPSVAALVLDIFCAEAVDAAAALHVPAYIYFTSAAGAFAASLGLMHHYSTTTTNLRDMGKALLRFPGVPPIPASDMPSLVQDREGRFYKARVKLYARAMEASGVLLNTYEWLEARAMGALREGACSPDRPTPPVYCVGPLVASGEEEGGGVRHACLAWLDAQPARSVVFLCFGSMGSFSAAQLKEIARGLESSGHRFLWVVRSPRQDPANLLEHLPEPDLAALLPEGFLERTADKGMVVKSWAPQAKVLRHAATAAFVTHCGWNSTLEGITAGVPLLCWPLYAEQRMNKVFIVEEMKVGVVIDGYDEEMVSAEEVEAKVRLVMESEEGGKLLERLAVARAKAVEALAEEGPSRVAFDEFIDRLVTSE
notes: full cDNA in pGEX-6p-1, N-terminal GST fusion, E. coli BL21(DE3), glutathione Sepharose purified
B2: OsUGT707A2 (Oryza sativa Japonica Group) (protein)
chain: MAPAMASSAATVVLIPFCVSGHLTPMLEVGKRMLRSRCCGDDDDGRPAMSLTVLLAQLPESHRAPEIDEIIRREAAGASEHSGFDVRFHCLPAEELPDFRGGEDFISRFMQQHASHAREAIAGLESRVAAVVLDWFCTTLLDVTRDLGLPGYVFFTSAASMLSLLLRLPALDKEVAVDFEEMGGAVDLPGLPPVPAALLPTPVMKKGCNYEWLVYHGSRFMEAAGIIVNTVAELEPAVLEAIADGRCVPGRRVPAIYTVGPVLSFKTPPEKPHECVRWLDAQPRASVVFLCFGSMGSFAPPQVLEIAAGLERSGHRFLWVLRGRPPAGSPYPTDADADELLPEGFLERTKGRGMVWPTWAPQKDILAHAAVGGFVTHGGWNSTLESLWHGVPMAPWPLYAEQHLNAFELVRDMGVAVEMEVDRKRGNLVEAAELERAVRCLMDEGSEEGRMAREKAAAAKAACRNAVDGGGSSIAALRKLTQEMAHMSSI
notes: as for B1

Columns and labels:
[1] = substrate: O=c1cc(-c2ccc(O)c(O)c2)oc2cc(O)cc(O)c12; test: purified protein, by the assay type; set-up: HPLC glucoside product formation by recombinant GST-UGT, 1.5 mM UDP-glucose, Michaelis-Menten fit; conditions: pH 8.0; 20.0 °C
Experimental: (§1) To determine the kinetic constants of UGTs for flavonoid acceptors, their activities were determined using 0 to 400 μM different flavonoids at a fixed concentration of 1.5 mM UDP-glucose. Flavonoids were purchased from BioBioPha Co., Ltd (www.biobiopha.com/) and UDP-sugars were purchased from Sigma-Aldrich, USA. All Kinetic parameters were calculated using Michaelis-Menten model (Sigma Plot, version 12.5). All the reactions were run in duplicate, and each experiment was repeated twice. The full cDNA of UGTs from Nipponbare (O. sativa L. spp. japonica) were cloned into the pGEX-6p-1 expression vector (Novagen) with a glutathione S-transferase tag. Recombinant proteins were expressed in BL21 (DE3) cells (Novagen) following induction by addition of 0.1 mM isopropy-β-D-thiogalactoside (IPTG) and growing continually for 16 h at 20 °C. Cells were collected and pellets were resuspended in lysis buffer (50 mM Tris-HCl, pH 8.0, 400 mM NaCl). The cells were disrupted by the high pressure cracker and cell debris was removed by centrifugation (14000 g, 1 h). Glutathione Sepharose 4B agarose (GE Healthcare) was added to the supernatant containing the target proteins. After incubation for 1 h, the mixture was transferred into a disposable column and washed extensively with lysis buffer (5 column volumes). Target proteins in collections were confirmed by SDS-PAGE and purified recombinant proteins were selected for enzyme assays and kinetics determination.

[2] = substrate: O=c1c(O)c(-c2ccc(O)c(O)c2)oc2cc(O)cc(O)c12; test: purified protein, by the assay type; set-up: HPLC glucoside product formation by recombinant GST-UGT, 1.5 mM UDP-glucose, Michaelis-Menten fit; conditions: pH 8.0; 20.0 °C
Experimental: as §1

[3] = substrate: O=c1c(O)c(-c2ccc(O)cc2)oc2cc(O)cc(O)c12; test: purified protein; conditions: 1.5 mM UDP-glucose, 5 mM MgCl2, Tris-HCl pH 7.4, 37 °C, 3-O-glucosylation
[4] = substrate: O=c1cc(-c2ccc(O)cc2)oc2cc(O)cc(O)c12; test: purified protein; conditions: 1.5 mM UDP-glucose, 5 mM MgCl2, Tris-HCl pH 7.4, 37 °C

Row | Protein | Km [1] | kcat [1] | kcat/Km [1] | Km [2] | kcat [2] | Km [3] | kcat [3] | Km ([4]; 7-O-glucosylation) | kcat ([4]; 7-O-glucosylation) | kcat/Km [2] | Km ([4]; 5-O-glucosylation) | kcat ([4]; 5-O-glucosylation)
1 | B1 | 11.6 ± 0.35 µM | 0.4 ± 0.2 s⁻¹ | 40000 M⁻¹ s⁻¹ | 11.9 ± 1.9 µM | 0.07 s⁻¹ | 16.8 ± 1.3 µM | 0.4 ± 0.01 s⁻¹ | 17.7 ± 1.3 µM | 0.7 ± 0.02 s⁻¹ |  |  | 
2 | B2 | 1.5 ± 0.5 µM | 0.05 ± 0.01 s⁻¹ | 30000 M⁻¹ s⁻¹ | 5.1 ± 0.6 µM | 0.06 ± 0.01 s⁻¹ | 6.7 ± 0.7 µM | 0.20 ± 0.01 s⁻¹ |  |  | 10000 M⁻¹ s⁻¹ | 8.9 ± 1.8 µM | 0.4 ± 0.06 s⁻¹
